Measurements reported in patent publication US20240141039A1 (AGENUS, published 2024).
Values belong to the binder of their own block, whether it stands above or below them.

Tests used:
[1] = target: T1, wild type full-length human CD96 isoform 1 expressed on CHO cells (human, UniProt P40200 22-585); assay: flow cytometry, human CD96 (isoform 1) CHO cells, 1 experiment
T1 construct: whole, on cells; also called human CD96-CHO (isoform 1)
T1 sequence (looked up): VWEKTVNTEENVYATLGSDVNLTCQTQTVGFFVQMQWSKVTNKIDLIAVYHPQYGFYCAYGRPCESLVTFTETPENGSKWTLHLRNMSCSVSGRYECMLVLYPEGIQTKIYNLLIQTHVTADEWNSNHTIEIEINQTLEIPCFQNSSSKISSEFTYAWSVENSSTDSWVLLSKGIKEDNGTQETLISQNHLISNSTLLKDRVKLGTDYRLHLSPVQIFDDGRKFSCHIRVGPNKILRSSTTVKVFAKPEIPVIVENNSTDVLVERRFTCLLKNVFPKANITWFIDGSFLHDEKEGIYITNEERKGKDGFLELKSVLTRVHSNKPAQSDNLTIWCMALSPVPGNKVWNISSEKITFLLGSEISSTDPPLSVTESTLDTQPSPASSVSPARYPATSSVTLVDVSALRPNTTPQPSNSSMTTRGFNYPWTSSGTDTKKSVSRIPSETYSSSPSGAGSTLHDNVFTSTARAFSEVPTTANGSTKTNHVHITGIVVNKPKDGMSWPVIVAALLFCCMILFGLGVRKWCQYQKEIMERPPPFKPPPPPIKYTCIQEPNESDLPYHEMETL
Procedure: (§1) For the antibody binding assay, a frozen aliquot of human CD96-CHO cells (isoform 1 or isoform 2) was thawed at 37° C. and then transferred to a tube containing DPBS supplemented with 0.5% Bovine Serum Albumin and 0.05% Sodium Azide (FACS Buffer). Cells were centrifuged at 300 g for five minutes. The supernatant was discarded, and cells resuspended in FACS buffer were seeded in a 96-well U-bottom tissue culture plate at a density of 2×10⁵ cells per well in 50 μL. In a separate microplate, a 2× concentrated intermediate stock of each antibody was prepared. Antibodies were serially diluted 1-to-3 in FACS buffer. A total of 11 working dilutions ranging from 60 μg/mL to 0.001 μg/mL were prepared. Fifty microlitres of each dilution were then transferred to the microplate containing human CD96-CHO cells. The cells were then incubated for 45 minutes at 4° C. […] After a 30-minute incubation on ice, the cells were washed twice with cold FACS Buffer, and the cells were analyzed by flow cytometry (BD LSR Fortessa Flow Cytometer). The data were analyzed using the FlowJo software by sequentially gating the FSC-A vs. SSC-A, and SSC-H vs. SSC-A. Mean fluorescence intensity (MFI) values for PE were calculated, and the data were plotted by GraphPad Prism software.

[2] = target: T2, full-length ECD of cynomolgus monkey TIGIT (His-tagged) (cynomolgus monkey); assay: SPR Biacore T200, Protein A capture, 1:1 model, experiment #2
T2 construct: also called His-tagged cynomolgus monkey TIGIT; cyno TIGIT extracellular domain
Procedure: Briefly, surface plasmon resonance experiments were performed using a Biacore T200 instrument, and the association rate (kₐ), dissociation rate (kd), and dissociation constant (KD) were calculated from each experiment using a 1:1 binding model with Biacore T200 Evaluation Software.
Multispecific molecules were captured using a 30-sec injection at a flow rate of 10 μl/min to reach about 350 resonance units (RUs). […] The sensor chip was regenerated between cycles with two 30-sec injections of 10 mM glycine, pH 1.5. Sensorgrams were evaluated and fit to a simple Langmuir 1:1 interaction model using the global data analysis option of BIAevaluation 3.0 software. Data quality was verified by visually inspecting deviations and curve fitting, and by evaluating the parameters of Rₘₐₓ, Chi2, and Tc.

[3] = target: T3, full-length human FcγRIIIa variant V/V expressed on CHO cells (human, UniProt P08637 17-254); assay: flow cytometry, human FcγRIIIa (V/V) CHO cells, geomean of 2 experiments
T3 construct: whole, on cells; also called human FcγRIIIa-CHO (variant V/V); human FcγRIIIa (V/V) CHO cells
T3 sequence (P08637 other isoform, or with tags, fused parts or gaps mutant limits assumed): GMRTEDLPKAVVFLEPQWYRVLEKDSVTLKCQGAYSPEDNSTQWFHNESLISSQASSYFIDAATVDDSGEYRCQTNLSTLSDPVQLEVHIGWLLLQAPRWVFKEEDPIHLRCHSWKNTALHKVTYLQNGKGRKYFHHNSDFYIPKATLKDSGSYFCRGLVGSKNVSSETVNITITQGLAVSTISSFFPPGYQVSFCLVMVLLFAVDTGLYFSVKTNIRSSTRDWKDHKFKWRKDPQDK
Procedure: The ability of anti-TIGIT×CD96 multispecific molecules to bind to variant V/V or variant F/F of human FcγRIIIa expressed on the surface of CHO cells was assessed. Briefly, CHO cells were transfected with a vector encoding full-length human FcγRIIIa (human FcγRIIIa-CHO) variant V/V or F/F, and clones stably expressing FcγRIIIa (variant V/V or variant F/F) were selected.
as §1, with “human FcγRIIIa-CHO (variant V/V or variant F/F)” for “human CD96-CHO”, “cells” for “cells (isoform 1 or isoform 2)”, “each multispecific molecule” for “each antibody”, “prepared.” for “prepared. Antibodies were serially diluted 1-to-3 in FACS buffer. A total of 11 working dilutions ranging from 60 μg/mL to 0.001 μg/mL were prepared. Fifty microlitres of each dilution were then transferred to the microplate containing human CD96-CHO cells. The cells were then incubated for 45 minutes at 4° C.”

[4] = target: T4, wild type full-length cynomolgus monkey TIGIT expressed on CHO cells (cynomolgus monkey, UniProt A0A7N9I9V4 89-312); assay: flow cytometry, cynomolgus TIGIT CHO cells, geomean of 2 experiments
T4 construct: whole, on cells; also called cynomolgus TIGIT-CHO cells
T4 sequence (A0A7N9I9V4 entry or part of it): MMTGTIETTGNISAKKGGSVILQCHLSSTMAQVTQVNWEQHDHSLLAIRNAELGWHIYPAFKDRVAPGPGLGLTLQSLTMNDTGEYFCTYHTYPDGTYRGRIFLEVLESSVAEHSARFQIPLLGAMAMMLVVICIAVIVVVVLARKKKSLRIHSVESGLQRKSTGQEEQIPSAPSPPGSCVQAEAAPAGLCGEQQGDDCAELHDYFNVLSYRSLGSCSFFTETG

- EC50 [1]: 0.0113 mg/L
- Kd [2]: 4.27 nM
- koff [2]: 0.00135 s⁻¹
- kon [2]: 315000 M⁻¹ s⁻¹
- EC50 [3]: 0.189 mg/L
- EC50 [4]: 0.165 mg/L
B1: anti-TIGIT×CD96 multispecific molecule BA123 (bispecific antibody, human IgG1, kappa, lambda)
heavy 1: QVQLVQSGAEVKKPGASVKVSCKASGYTFTSYGISWVRQAPGQGLEWMGWISAYNANTNYAQKLQGRVTMTTDTSTSTAYMELRSLRSDDTAVYYCARSAGVLGGMDVWGRGTLVTVSSASTKGPSVFPLAPSSKSTSGGTAALGCLVKDYFPEPVTVSWNSGALTSGVHTFPAVLQSSGLYSLSSVVTVPSSSLGTQTYICNVNHKPSNTKVDKRVEPKSCDKTHTCPPCPAPELLGGPDVFLFPPKPKDTLMISRTPEVTCVVVDVSHEDPEVKFNWYVDGVEVHNAKTKPREEQYNSTYRVVSVLTVLHQDWLNGKEYKCKVSNKALPAPIEKTISKAKGQPREPQVYTLPPSREEMTKNQVSLSCAVKGFYPSDIAVEWESNGQPENNYKTTPPVLDSDGSFFLVSKLTVDKSRWQQGNVFSCSVMHEALHNHYTQKSLSLSPG
light 1: not shown
heavy 2: EVQLVQSGAEVKKPGSSVKVSCKASGYTFASYGISWVRQAPGQGLEWMGGITPFFNRVDVAEKFQGRVTITADKSTSTAYIELSSLRSEDTAVYYCARDLRRGGVGDAFDIWGRGTLVTVSSASTKGPSVFPLAPSSKSTSGGTAALGCLVKDYFPEPVTVSWNSGALTSGVHTFPAVLQSSGLYSLSSVVTVPSSSLGTQTYICNVNHKPSNTKVDKRVEPKSCDKTHTCPPCPAPELLGGPDVFLFPPKPKDTLMISRTPEVTCVVVDVSHEDPEVKFNWYVDGVEVHNAKTKPREEQYNSTYRVVSVLTVLHQDWLNGKEYKCKVSNKALPLPEEKTISKAKGQPREPQVYTLPPSREEMTKNQVSLWCLVKGFYPSDIAVEWESNGQPENNYKTTPPVLDSDGSFFLYSKLTVDKSRWQQGNVFSCSVMHEALHNHYTQKSLSLSPG
light 2: QSALTQPRSVSGSPGQSVTISCTGTSPDVGSHAYRSWYQQHPGKAPKLMIYEVSYRPSGVSNRFSGSKSGNTASLTISGLQAEDEADYYCSSYPPSSATVFGAGTKLTVLGQPKAAPSVTLFPPSSEELQANKATLVCLISDFYPGAVTVAWKADSSPVKAGVETTTPSKQSNNKYAASSYLSLTPEQWKSHRSYSCQVTHEGSTVEKTVAPTEC
notes: copies: 1 + 1 + 1 + 1

- EC50 [1]: 0.0489 mg/L
- Kd [2]: 3.7 nM
- koff [2]: 0.00129 s⁻¹
- kon [2]: 348000 M⁻¹ s⁻¹
- EC50 [3]: 0.148 mg/L
- EC50 [4]: 0.258 mg/L
B2: anti-TIGIT×CD96 multispecific molecule BA127 (bispecific antibody, human IgG1, kappa, lambda)
heavy 1: QVQLVQSGAEVKKPGASVKVSCKASGYTFTTYALHWVRQAPGQRLEWMGWINTGSGDTKYSQKFQGRVTITRDTSASTAYMELSSLRSEDTAVYYCARSLGVYYGMDVWGQGTLVTVSSASTKGPSVFPLAPSSKSTSGGTAALGCLVKDYFPEPVTVSWNSGALTSGVHTFPAVLQSSGLYSLSSVVTVPSSSLGTQTYICNVNHKPSNTKVDKRVEPKSCDKTHTCPPCPAPELLGGPDVFLFPPKPKDTLMISRTPEVTCVVVDVSHEDPEVKFNWYVDGVEVHNAKTKPREEQYNSTYRVVSVLTVLHQDWLNGKEYKCKVSNKALPAPIEKTISKAKGQPREPQVYTLPPSREEMTKNQVSLSCAVKGFYPSDIAVEWESNGQPENNYKTTPPVLDSDGSFFLVSKLTVDKSRWQQGNVFSCSVMHEALHNHYTQKSLSLSPG
light 1: not shown
heavy 2: B1 heavy 2
light 2: B1 light 2
notes: Anti-CD96 arm = BA139, anti-TIGIT arm = BA150; copies: 1 + 1 + 1 + 1
